Assay results as given in patent publication US20090004210A1.

B1: Peptide 1235 DRELRI (peptide)
peptide: DRELRIC
B2: Peptide 1238 DKELR (peptide)
peptide: DKELRC
B3: Peptide 1241 DWEFRDA (peptide)
peptide: DWEFRDAC
B4: Peptide 1236 DKELKI (peptide)
peptide: DKELKIC
B5: Peptide 1237 DRELKI (peptide)
peptide: DRELKIC
B6: Peptide 1239 EYEFRG (peptide)
peptide: EYEFRGC
B7: Peptide 4031 DAELRY (peptide)
peptide: DAELRYC
B8: Peptide 4032 DWELRQ (peptide)
peptide: DWELRQC
B9: Peptide 4033 SLEFRF (peptide)
peptide: SLEFRFC
B10: Peptide 4034 GPEFRW (peptide)
peptide: GPEFRWC
B11: Peptide 4035 GKEFRT (peptide)
peptide: GKEFRTC
B12: Peptide 4036 AYEFRH (peptide)
peptide: AYEFRHC
B13: Peptide 4002 SWEFRT (peptide)
peptide: SWEFRTC
B14: Peptide 3001 DKELRI (peptide)
peptide: DKELRIC
B15: Peptide 3006 EAEFRG (peptide)
peptide: EAEFRGC
B16: Peptide 3007 DYEFRG (peptide)
peptide: DYEFRGC
B17: Peptide 3002 DWELRI (peptide)
peptide: DWELRIC
B18: Peptide 3005 YAEFRG (peptide)
peptide: YAEFRGC
B19: Peptide 3008 ELEFRG (peptide)
peptide: ELEFRGC
B20: Peptide 3009 SFEFRG (peptide)
peptide: SFEFRGC
B21: Peptide 4021 SVEFRYH (peptide)
peptide: SVEFRYHC
B22: Peptide 4022 SYEFRHH (peptide)
peptide: SYEFRHHC
B23: Peptide 4023 SQEFRTP (peptide)
peptide: SQEFRTPC
B24: Peptide 4024 SSEFRVS (peptide)
peptide: SSEFRVSC
B25: Peptide 4025 DWEFRD (peptide)
peptide: DWEFRDC
B26: Peptide 4020 SWELRQA (peptide)
peptide: SWELRQAC

Each molecule was assayed against monoclonal antibody (mAb) to detect Aβ42-derived peptide species with free N-terminus (generated in Example 1) (assay: competition ELISA: soluble peptide against plate-bound DAEFRH-C-BSA for the biotinylated mAb, FIG. 9).

Peptide 4062 DKE(Nle)R and Peptide 4064 DKE(Cha)R cannot be ordered by IC50: greater than 0.5 µg/mL for the first, greater than 0.5 µg/mL for the second.

For Peptide 4063 DKE(Nva)R, the IC50 was greater than 0.5 µg/mL.

Each molecule was assayed against monoclonal antibody (mAb) to detect Aβ42-derived peptide species with free N-terminus (generated in Example 1) (assay: competition ELISA: soluble peptide against plate-bound DAEFRH-C-BSA for the biotinylated mAb, FIG. 5).

B1 and B2 cannot be ordered by IC50: less than 0.5 µg/mL for the first, less than 0.5 µg/mL for the second.

Going from B3 to B4, the IC50 rises from less than 0.5 µg/mL to greater than 5 µg/mL.

B5 and B6 cannot be ordered by IC50: greater than 5 µg/mL for the first, greater than 0.5 µg/mL for the second.

The molecules below were run against monoclonal antibody (mAb) to detect Aβ42-derived peptide species with free N-terminus (generated in Example 1) (assay: competition ELISA: soluble peptide against plate-bound DAEFRH-C-BSA for the biotinylated mAb, FIG. 8).

B7 and B8 cannot be ordered by IC50: less than 0.5 µg/mL for the first, less than 0.5 µg/mL for the second.

B9 and B10 cannot be ordered by IC50: less than 0.5 µg/mL for the first, less than 0.5 µg/mL for the second.

Going from B11 to B12, the IC50 rises from less than 0.5 µg/mL to greater than 0.5 µg/mL.

The molecules below were run against monoclonal antibody (mAb) to detect Aβ42-derived peptide species with free N-terminus (generated in Example 1) (assay: competition ELISA: soluble peptide against plate-bound DAEFRH-C-BSA for the biotinylated mAb, FIG. 4).

Work on B13 yielded an IC50 of less than 0.4 µg/mL.

What follows are molecules tested against monoclonal antibody (mAb) to detect Aβ42-derived peptide species with free N-terminus (generated in Example 1) (assay: competition ELISA: soluble peptide against plate-bound DAEFRH-C-BSA for the biotinylated mAb, FIG. 2).

B14 and B15 cannot be ordered by IC50: less than 0.5 µg/mL for the first, less than 0.5 µg/mL for the second.

Compared with B16, B17 is higher in IC50: less than 0.5 µg/mL for the first, greater than 0.5 µg/mL for the second.

B18 showed an IC50 greater than 0.5 µg/mL.

The molecules below were run against monoclonal antibody (mAb) to detect Aβ42-derived peptide species with free N-terminus (generated in Example 1) (assay: competition ELISA: soluble peptide against plate-bound DAEFRH-C-BSA for the biotinylated mAb, FIG. 3).

B19 and B20 cannot be ordered by IC50: less than 5 µg/mL for the first, less than 5 µg/mL for the second.

These molecules were tested against monoclonal antibody (mAb) to detect Aβ42-derived peptide species with free N-terminus (generated in Example 1) (assay: competition ELISA: soluble peptide against plate-bound DAEFRH-C-BSA for the biotinylated mAb, FIG. 7).

B21 and B22 cannot be ordered by IC50: less than 0.5 µg/mL for the first, less than 0.5 µg/mL for the second.

B23 and B24 cannot be ordered by IC50: less than 0.5 µg/mL for the first, less than 0.5 µg/mL for the second.

Compared with B25, B26 is higher in IC50: less than 0.5 µg/mL for the first, greater than 0.5 µg/mL for the second.
